Biological target: the molecule itself
Assay: SEC + AUC

B1: ΔNterm-Them1 (Mus musculus Thioesterase superfamily member 1, thioesterase domains and START domain, residues 43-594) (enzyme, UniProt Q8VHQ9 43-594, looked up)
chain: YRNPTEVQMSQLVLPCHTNHRGELSIGQLLKWIDTTACLSAERHAGCPCVTASMDDIYFDHTISVGQVVNIKAKVNRAFNSSMEVGIQVVSEDLCSEKQWSVCKALATFVAHRELSKVKLKQVIPLTEEEKTEHGVAAERRRMRLVYADTIKDLLTHCVIQDDLDKDCSNMVPAEKTRVESVELVLPPHANHQGNTFGGQIMAWMENVATIAASRLCHAHPTLKAIEMFHFRGPSQVGDRLVLKAIVNNAFKHSMEVGVCVEAYRQEAETQRRHINSAFMTFVVLDKDDQPQKLPWIRPQPGEGERRYREASARKKIRLDRKYLVSCKQAEVALSVPWDPSNQVYLSYYNVSSLKTLMAKDNWVLSVEISEVRLYILEEDFLSFHLEMVVNVDAAQVFQLLSDLRRRPEWDKHYRSVELVQQVDEDDAIYHVISPALSGNTKPQDFVILASRRKPCDNGDPYVIALRSVTLPTHHETPEYQRGETLCSGFCLWREGDQMTKVSYYNQATPGFLNYVTTNVSGLSSEFYNTFKACESFLLDNRNDLAPSLQTL
  stoichiometry N: 3

— paper doi:10.1101/2020.02.18.954917 (bioRxiv, 2020)
